Measured values taken from the supplement of paper PMC5998384.

What was measured:
HeLa Kyoto [1] = experiment: solubility in G1/S (NP-40 vs SDS abundance) (log2 ratio); higher = more soluble; conditions: cell cycle stage: G1/S
HeLa Kyoto [2] = experiment: solubility change mitosis vs G1/S (difference of NP-40 vs SDS log2 ratios) (log2 ratio difference); higher = more soluble in mitosis
HeLa Kyoto [3] = experiment: melting temperature (median over replicates), in situ; higher = more thermally stable
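Throughout, for melting temperature (median over replicates), in situ: HeLa Kyoto cells synchronized by double thymidine or nocodazole block, proteins quantified by TMT10plex mass spectrometry, three independent biological replicates.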
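Throughout, for solubility change mitosis vs G1/S (difference of NP-40 vs SDS log2 ratios): synchronized HeLa Kyoto cells (double thymidine block for G1/S, nocodazole release for mitosis), protein amounts in NP-40 versus SDS lysates quantified by mass spectrometry, three biological replicates.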
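Throughout, for solubility in G1/S (NP-40 vs SDS abundance): HeLa Kyoto cells arrested at G1/S by double thymidine block, proteins quantified by TMT10plex mass spectrometry in mild NP-40 versus SDS extracts, three biological replicates.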

| Sequence | solubility in G1/S (log2) (HeLa Kyoto [1]) | solubility change mitosis (log2) (HeLa Kyoto [2]) | melting temperature (HeLa Kyoto [3]; cell cycle stage: G1/S) | melting temperature (HeLa Kyoto [3]; cell cycle stage: mitosis) |
| --- | --- | --- | --- | --- |
| MAMSFEWPWQYRFPPFFTLQPNVDTRQKQLAAWCSLVLSFCRLHKQSSMTVMEAQESPLFNNVKLQRKLPVESIQIVLEELRKKGNLEWLDKSKSSFLIMWRRPEEWGKLIYQWVSRSGQNNSVFTLYELTNGEDTEDEEFHGLDEATLLRALQALQQEHKAEIITVSDGRGVKFF [VPS25] | -0.0882 | -0.086 | 51.2 °C | 51.3 °C |
| MPIVDKLKEALKPGRKDSADDGELGKLLASSAKKVLLQKIEFEPASKSFSYQLEALKSKYVLLNPKTEGASRHKSGDDPPARRQGSEHTYESCGDGVPAPQKVLFPTERLSLRWERVFRVGAGLHNLGNTCFLNATIQCLTYTPPLANYLLSKEHARSCHQGSFCMLCVMQNHIVQAFANSGNAIKPVSFIRDLKKIARHFRFGNQEDAHEFLRYTIDAMQKACLNGCAKLDRQTQATTLVHQIFGGYLRSRVKCSVCKSVSDTYDPYLDVALEIRQAANIVRALELFVKADVLSGENAYMCAKCKKKVPASKRFTIHRTSNVLTLSLKRFANFSGGKITKDVGYPEFLNIRPYMSQNNGDPVMYGLYAVLVHSGYSCHAGHYYCYVKASNGQWYQMNDSLVHSSNVKVVLNQQAYVLFYLRIPGSKKSPEGLISRTGSSSLPGRPSVIPDHSKKNIGNGIISSPLTGKRQDSGTMKKPHTTEEIGVPISRNGSTLGLKSQNGCIPPKLPSGSPSPKLSQTPTHMPTILDDPGKKVKKPAPPQHFSPRTAQGLPGTSNSNSSRSGSQRQGSWDSRDVVLSTSPKLLATATANGHGLKGNDESAGLDRRGSSSSSPEHSASSDSTKAPQTPRSGAAHLCDSQETNCSTAGHSKTPPSGADSKTVKLKSPVLSNTTTEPASTMSPPPAKKLALSAKKASTLWRATGNDLRPPPPSPSSDLTHPMKTSHPVVASTWPVHRARAVSPAPQSSSRLQPPFSPHPTLLSSTPKPPGTSEPRSCSSISTALPQVNEDLVSLPHQLPEASEPPQSPSEKRKKTFVGEPQRLGSETRLPQHIREATAAPHGKRKRKKKKRPEDTAASALQEGQTQRQPGSPMYRREGQAQLPAVRRQEDGTQPQVNGQQVGCVTDGHHASSRKRRRKGAEGLGEEGGLHQDPLRHSCSPMGDGDPEAMEESPRKKKKKKRKQETQRAVEEDGHLKCPRSAKPQDAVVPESSSCAPSANGWCPGDRMGLSQAPPVSWNGERESDVVQELLKYSSDKAYGRKVLTWDGKMSAVSQDAIEDSRQARTETVVDDWDEEFDRGKEKKIKKFKREKRRNFNAFQKLQTRRNFWSVTHPAKAASLSYRR [USP36] | -1.41 | 0.946 | 52.3 °C | 52.2 °C |
| MAHRLQIRLLTWDVKDTLLRLRHPLGEAYATKARAHGLEVEPSALEQGFRQAYRAQSHSFPNYGLSHGLTSRQWWLDVVLQTFHLAGVQDAQAVAPIAEQLYKDFSHPCTWQVLDGAEDTLRECRTRGLRLAVISNFDRRLEGILGGLGLREHFDFVLTSEAAGWPKPDPRIFQEALRLAHMEPVVAAHVGDNYLCDYQGPRAVGMHSFLVVGPQALDPVVRDSVPKEHILPSLAHLLPALDCLEGSTPGL [HDHD3] | 0.0599 | 0.0289 | 53.9 °C | 54.8 °C |
| MITKTHKVDLGLPEKKKKKKVVKEPETRYSVLNNDDYFADVSPLRATSPSKSVAHGQAPEMPLVKKKKKKKKGVSTLCEEHVEPETTLPARRTEKSPSLRKQVFGHLEFLSGEKKNKKSPLAMSHASGVKTSPDPRQGEEETRVGKKLKKHKKEKKGAQDPTAFSVQDPWFCEAREARDVGDTCSVGKKDEEQAALGQKRKRKSPREHNGKVKKKKKIHQEGDALPGHSKPSRSMESSPRKGSKKKPVKVEAPEYIPISDDPKASAKKKMKSKKKVEQPVIEEPALKRKKKKKRKESGVAGDPWKEETDTDLEVVLEKKGNMDEAHIDQVRRKALQEEIDRESGKTEASETRKWTGTQFGQWDTAGFENEDQKLKFLRLMGGFKNLSPSFSRPASTIARPNMALGKKAADSLQQNLQRDYDRAMSWKYSRGAGLGFSTAPNKIFYIDRNASKSVKLED [KNOP1] | -1.76 | 1.57 | 54.2 °C | 52.1 °C |
| MAEPDYIEDDNPELIRPQKLINPVKTSRNHQDLHRELLMNQKRGLAPQNKPELQKVMEKRKRDQVIKQKEEEAQKKKSDLEIELLKRQQKLEQLELEKQKLQEEQENAPEFVKVKGNLRRTGQEVAQAQES [FAM107B] | 0.00364 | 0.435 | 57.3 °C |  |
| MAAPSGTVSDSESSNSSSDAEELERCREAAMPAWGLEQRPHVAGKPRAGAANSQLSTSQPSLRHKVNEHEQDGNELQTTPEFRAHVAKKLGALLDSFITISEAAKEPAKAKVQKVALEDDGFRLFFTSVPGGREKEESPQPRRKRQPSSSSEDSDEEWRRCREAAVSASDILQESAIHSPGTVEKEAKKKRKLKKKAKKVASVDSAVAATTPTSMATVQKQKSGELNGDQVSLGTKKKKKAKKASETSPFPPAKSATAIPAN [C12ORF43] | -0.08 | 0.379 | 56.1 °C | 56.9 °C |
| MDTAEEDICRVCRSEGTPEKPLYHPCVCTGSIKFIHQECLVQWLKHSRKEYCELCKHRFAFTPIYSPDMPSRLPIQDIFAGLVTSIGTAIRYWFHYTLVAFAWLGVVPLTACRIYKCLFTGSVSSLLTLPLDMLSTENLLADCLQGCFVVTCTLCAFISLVWLREQIVHGGAPIWLEHAAPPFNAAGHHQNEAPAGGNGAENVAADQPANPPAENAVVGENPDAQDDQAEEEEEDNEEEDDAGVEDAADANNGAQDDMNWNALEWDRAAEELTWERMLGLDGSLVFLEHVFWVVSLNTLFILVFAFCPYHIGHFSLVGLGFEEHVQASHFEGLITTIVGYILLAITLIICHGLATLVKFHRSRRLLGVCYIVVKVSLLVVVEIGVFPLICGWWLDICSLEMFDATLKDRELSFQSAPGTTMFLHWLVGMVYVFYFASFILLLREVLRPGVLWFLRNLNDPDFNPVQEMIHLPIYRHLRRFILSVIVFGSIVLLMLWLPIRIIKSVLPNFLPYNVMLYSDAPVSELSLELLLLQVVLPALLEQGHTRQWLKGLVRAWTVTAGYLLDLHSYLLGDQEENENSANQQVNNNQHARNNNAIPVVGEGLHAAHQAILQQGGPVGFQPYRRPLNFPLRIFLLIVFMCITLLIASLICLTLPVFAGRWLMSFWTGTAKIHELYTAACGLYVCWLTIRAVTVMVAWMPQGRRVIFQKVKEWSLMIMKTLIVAVLLAGVVPLLLGLLFELVIVAPLRVPLDQTPLFYPWQDWALGVLHAKIIAAITLMGPQWWLKTVIEQVYANGIRNIDLHYIVRKLAAPVISVLLLSLCVPYVIASGVVPLLGVTAEMQNLVHRRIYPFLLMVVVLMAILSFQVRQFKRLYEHIKNDKYLVGQRLVNYERKSGKQGSSPPPPQSSQE [MARCH6] | -0.397 | 0.155 |  |  |
| MNFEGLDPGLAEYAPAMHSALDPVLDAHLNPSLLQNVELDPEGVALEALPVQESVHIMEGVYSELHSVVAEVGVPVSVSHFDLHEEMLWVGSHGGHATSFFGPALERYSSFQVNGSDDIRQIQSLENGILFLTKNNLKYMARGGLIIFDYLLDENEDMHSLLLTDSSTLLVGGLQNHIIEIDLNTVQETQKYAVETPGVTIMRQTNRFFFCGHTSGKVSLRDLRTFKVEHEFDAFSGSLSDFDVHGNLLAACGFSSRLTGLACDRFLKVYDLRMMRAITPLQVHVDPAFLRFIPTYTSRLAIISQSGQCQFCEPTGLANPADIFHVNPVGPLLMTFDVSASKQALAFGDSEGCVHLWTDSPEPSFNPYSRETEFALPCLVDSLPPLDWSQDLLPLSLIPVPLTTDTLLSDWPAANSAPAPRRAPPVDAEILRTMKKVGFIGYAPNPRTRLRNQIPYRLKESDSEFDSFSQVTESPVGREEEPHLHMVSKKYRKVTIKYSKLGLEDFDFKHYNKTLFAGLEPHIPNAYCNCMIQVLYFLEPVRCLIQNHLCQKEFCLACELGFLFHMLDLSRGDPCQGNNFLRAFRTIPEASALGLILADSDEASGKGNLARLIQRWNRFILTQLHQDMQELEIPQAYRGAGGSSFCSSGDSVIGQLFSCEMENCSLCRCGSETVRASSTLLFTLSYPDGSKSDKTGKNYDFAQVLKRSICLDQNTQAWCDTCEKYQPTIQTRNIRHLPDILVINCEVNSSKEADFWRMQAEVAFKMAVKKHGGEISKNKEFALADWKELGSPEGVLVCPSIEELKNVWLPFSIRMKMTKNKGLDVCNWTDGDEMQWGPARAEEEHGVYVYDLMATVVHILDSRTGGSLVAHIKVGETYHQRKEGVTHQQWYLFNDFLIEPIDKHEAVQFDMNWKVPAILYYVKRNLNSRYNLNIKNPIEASVLLAEASLARKQRKTHTTFIPLMLNEMPQIGDLVGLDAEFVTLNEEEAELRSDGTKSTIKPSQMSVARITCVRGQGPNEGIPFIDDYISTQEQVVDYLTQYSGIKPGDLDAKISSKHLTTLKSTYLKLRFLIDIGVKFVGHGLQKDFRVINLMVPKDQVLDTVYLFHMPRKRMISLRFLAWYFLDLKIQGETHDSIEDARTALQLYRKYLELSKNGTEPESFHKVLKGLYEKGRKMDWKVPEPEGQTSPKNAAVFSSVLAL [PAN2] | -0.18 | 0.206 |  |  |
| MEKPRSIEETPSSEPMEEEEDDDLELFGGYDSFRSYNSSVGSESSSYLEESSEAENEDREAGELPTSPLHLLSPGTPRSLDGSGSEPAVCEMCGIVGTREAFFSKTKRFCSVSCSRSYSSNSKKASILARLQGKPPTKKAKVLHKAAWSAKIGAFLHSQGTGQLADGTPTGQDALVLGFDWGKFLKDHSYKAAPVSCFKHVPLYDQWEDVMKGMKVEVLNSDAVLPSRVYWIASVIQTAGYRVLLRYEGFENDASHDFWCNLGTVDVHPIGWCAINSKILVPPRTIHAKFTDWKGYLMKRLVGSRTLPVDFHIKMVESMKYPFRQGMRLEVVDKSQVSRTRMAVVDTVIGGRLRLLYEDGDSDDDFWCHMWSPLIHPVGWSRRVGHGIKMSERRSDMAHHPTFRKIYCDAVPYLFKKVRAVYTEGGWFEEGMKLEAIDPLNLGNICVATVCKVLLDGYLMICVDGGPSTDGLDWFCYHASSHAIFPATFCQKNDIELTPPKGYEAQTFNWENYLEKTKSKAAPSRLFNMDCPNHGFKVGMKLEAVDLMEPRLICVATVKRVVHRLLSIHFDGWDSEYDQWVDCESPDIYPVGWCELTGYQLQPPVAAEPATPLKAKEATKKKKKQFGKKRKRIPPTKTRPLRQGSKKPLLEDDPQGARKISSEPVPGEIIAVRVKEEHLDVASPDKASSPELPVSVENIKQETDD [L3MBTL2] | -0.293 | 0.0658 |  |  |
| MEDGVLKEGFLVKRGHIVHNWKARWFILRQNTLVYYKLEGGRRVTPPKGRILLDGCTITCPCLEYENRPLLIKLKTQTSTEYFLEACSREERDAWAFEITGAIHAGQPGKVQQLHSLRNSFKLPPHISLHRIVDKMHDSNTGIRSSPNMEQGSTYKKTFLGSSLVDWLISNSFTASRLEAVTLASMLMEENFLRPVGVRSMGAIRSGDLAEQFLDDSTALYTFAESYKKKISPKEEISLSTVELSGTVVKQGYLAKQGHKRKNWKVRRFVLRKDPAFLHYYDPSKEENRPVGGFSLRGSLVSALEDNGVPTGVKGNVQGNLFKVITKDDTHYYIQASSKAERAEWIEAIKKLT [PLEK2] | -0.00783 | -0.0462 |  |  |
